The target in one assay is MFG-E8-Ig (mouse) (UniProt P21956). The assay can be described thus: SEC. For orientation: Size exclusion chromatography separates by hydrodynamic size, large species first.
A further assay concerns the target RGE-MFG-E8-Ig (mouse) (UniProt P21956). Briefly: SEC.

From PMC6999705 come the findings set out here.

The stoichiometry N is the number of molecules, sites or subunits per partner or assembly. Consider “MFG-E8-Ig (from UniProt P21956 23-148) (Fc fusion)”, for which, in the assay with MFG-E8-Ig (mouse), the stoichiometry N stood at 2.

Substance “RGE-MFG-E8-Ig (from UniProt P21956 23-148) (Fc fusion)” yielded a stoichiometry N in the assay with RGE-MFG-E8-Ig (mouse) of 2.
